Changes are numbered by the printed parent chain. Read-outs that look alike come from different tables or passages of the source.
Key:
human CD19 [1] = target: T1, human CD19 (UniProt P15391 20-556); experiment: FACS cell binding; avid
T1 chain: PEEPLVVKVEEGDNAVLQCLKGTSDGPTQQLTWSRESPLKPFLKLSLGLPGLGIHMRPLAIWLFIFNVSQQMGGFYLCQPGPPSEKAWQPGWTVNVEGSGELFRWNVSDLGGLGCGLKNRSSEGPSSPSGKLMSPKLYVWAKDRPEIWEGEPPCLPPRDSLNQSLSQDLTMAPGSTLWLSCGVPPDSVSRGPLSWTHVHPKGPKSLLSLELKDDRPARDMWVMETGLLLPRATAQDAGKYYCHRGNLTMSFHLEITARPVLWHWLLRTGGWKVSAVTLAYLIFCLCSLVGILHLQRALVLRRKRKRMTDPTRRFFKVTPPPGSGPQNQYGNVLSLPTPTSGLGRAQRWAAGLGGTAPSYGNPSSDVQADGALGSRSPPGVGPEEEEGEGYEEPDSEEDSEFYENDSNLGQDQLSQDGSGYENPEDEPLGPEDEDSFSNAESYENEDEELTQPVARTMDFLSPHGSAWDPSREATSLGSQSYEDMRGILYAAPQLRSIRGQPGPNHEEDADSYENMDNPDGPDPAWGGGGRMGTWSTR

human CD19 [2] = target: T2, human CD19 (human, UniProt P15391 20-556); experiment: flow cytometry, scFv_Fc on K562-CD19 cells, FITC anti-human Fc
T2 construct: In the killing assay it is also on Daudi and Raji cells; also called K562-CD19; K562 cells stably transfected with human CD19
T2 sequence: T1 chain
Description: (§1) K562 cells (K562-CD19) stably expressing human CD19 and K562 were used, and cells were harvested, washed with complete growth medium and plated into U-bottom microtiter plates at approximately 1−5×10⁵ cells/well. The gradient-diluted huHD37 scFv_Fc fusion antibody was incubated with K562-CD19/K562 for 30 minutes on ice, and then incubated with FITC-labeled anti-human Fc as a secondary antibody. After two washing steps, the analysis was performed using Guava easyCyte™ HT System, and the experimental data was processed using GraphPad Prism to obtain an EC50.
K562 cells stably expressing human CD19 (K562-CD19) and K562 were used, and cells were harvested, washed with complete growth medium, and plated into U-bottom microtiter plates at approximately 1−5×10⁵ cells/well. The gradient diluted scFv_Fc fusion antibody was incubated with K562-CD19/K562 for 30 minutes on ice, and then incubated with FITC-labeled anti-human Fc as a secondary antibody. After two washing steps, the analysis was performed using Guava easyCyte™ HT System, and the experimental data was processed using GraphPad Prism to obtain an EC50.

human CD19 [3] = target: T1, human CD19; experiment: FACS cell binding; avid
human CD19 [4] = target: T2, human CD19; experiment: flow cytometry on K562-CD19 cells
Description: as §1

B1: humanized antibody huHD37 (scFv_Fc fusion antibody) (Fc fusion)
scFv: QVQLVQSGAEVKKPGSSVKVSCKASGYTFSSYWMNWVRQAPGQGLEWMGQIWPGDGDTNYNGKFKGRVTITADESTSTAYMELSSLRSEDTAVYYCARRETTTVGRYYYAMDYWGQGTTVTVSSGGGGSGGGGSGGGGSDIVLTQSPASLAVSPGQRATITCKASQSVDYDGDSYLNWYQQKPGQPPKLLIYDASNLVSGVPARFSGSGSGTDFTLTINPVEANDTANYYCQQSTEDPWTFGQGTKVEIKR
notes: also called humanized huHD37; not shown: human IgG1 Fc fragment carried by the eukaryotic expression vector V152
EC50 (human CD19 [1]): 4.7 nM
binding result (human CD19 [2]): binds

B2: clone 6B3 (scFv_Fc) (Fc fusion)
scFv: B1 scFv with M34I, D57E, N59H
EC50 (human CD19 [3]): 2.74 nM

B3: clone 8E3 (scFv_Fc) (Fc fusion)
scFv: B1 scFv with Q166H, V168L, S174N
notes: Only the light chain is said to differ from huHD37; not shown: Human Fc fragment of expression vector V152 (and any junction residues to it)
EC50 (human CD19 [3]): 4.72 nM
binding result (human CD19 [2]): binds

B4: murine antibody HD37 (scFv chimeric with human IgG1 Fc) (Fc fusion)
VH: QVQLQQSGAELVRPGSSVKISCKASGYAFSSYWMNWVKQRPGQGLEWIGQIWPGDGDTNYNGKFKGKATLTADESSSTAYMQLSSLASEDSAVYFCARRETTTVGRYYYAMDYWGQGTTVTVSS
VL: DIQLTQSPASLAVSLGQRATISCKASQSVDYDGDSYLNWYQQIPGQPPKLLIYDASNLVSGIPPRFSGSGSGTDFTLNIHPVEKVDAATYHCQQSTEDPWTFGGGTKLEIKR
notes: also called parental antibody HD37; parental HD37
binding result (human CD19 [4]): binds

Reference: patent US20200062843A1 (CRAGE MEDICAL, published 2020)
